Data on two substances can be found in patent US6897017.

Common to all, as to assay: cell-based or functional assay
The target in assay [1] is GCN4-DHFR[2:I114A] (murine).
Assay [2] deals with WinZip-B2 fused to DHFR[2:I114A] (clone of LibB-DHFR[2:I114A]) (murine) (UniProt P00375).
In assay [3] the target is WinZip-B1-DHFR[2:I114A] (murine) (UniProt P00375).

Turning to “GCN4-DHFR[1] (from UniProt P03069 253-274; P00375 1-107)”, in assay [1], the GCN4 zippers among sequences from passage 9 of model competition selection (of 24 sequences) came to 0.
With “WinZip-A1-DHFR[1] (from UniProt P00375 1-107) (designed binder)”, in assay [2], the Frequency of dominant pair at P12, shuffling WinZip-A1 + LibB-DHFR[2:I114A] is 67%; the Selection factor, shuffling WinZip-A1 + LibB-DHFR[2:I114A] turned out to be 87000; the frequency of the pair among clones sequenced at P10 is 3 of 5 clones. Also, in assay [3], the Frequency of dominant pair at P12, competition selection (I114A) was 82%; the Selection factor, competition selection (I114A) is 3.2e+06; the frequency of the pair among colonies sequenced at P10 is 33%.
